A short description of the series: label from the status in PepcDB records.

This note sets out measurements from a protein production outcome set (Wang et al. 2014).

With “MLATPFWYNAALKVLKPVYRWRIKKRAENEMRYQQECRERFGPFQQPQNRHALWFHAVSVGETNAAQPLIEYYLKLGHPVLVTNTTKTGQARAKSLFLKSPYLELFQAVYLPVDQIFLLKQFFELYQPKLLALVETELWPNLIDQAQHYGVPTFLINARLSEKSAQGYARVSALSNAMLSRLTGLLAQDQSTQQRFIGLGLAREKAQVVGNIKFDIDVPLEHHHHHH”, the protein production result is “failed”.

Regarding “MLDFNIEGLIPKNMEKRGELVLNEYLKEIEDVFNHRKIPENGIDDEKIKLFLKFLSMMDTDKDPKSVRIGEREARTYSKIHEELSSGFCHGIGRSGNLVDPQPKASGASIMYALTNKILESFFKQLGLNVHAIATPISTGMSISLCLSAARKKYGSNVVIYPYASHKSPIKAVSFVGMNMRLVETVLDGDRVYVPVEDIENAIKKEIELGNRPCVLSTLTFFPPRNSDDIVEIAKICENYDIPHIINGAYAIQNNYYLEKLKKAFKYRVDAVVSSSDKNLLTPIGGGLVYSTDAEFIKEISLSYPGRASATPVVNTLVSLLSMGSKNYLELVKNQKNSKKLLDELLNDLSKKTGGKFLDVESPIASCISVNSDPVEIAAKLYNLRVTGPRGIKKTDHFGNCYLGTYTHDYIVMNAAIGVRTEDIVNSVSKLEKILL”, the protein production entry is listed as “failed”.

As to “MLDKVIYSLLRTQDPGLAQELYFRLQAKEQSFAEVAQKYSQGPESQTGGLVGPVEQSSLHPAMVQLLSSCQPGQISPPTRITEWYVIVRVEKFIPAQLEHHHHHH”, the protein production result was “not failed”.

Consider “MLDNKDIATPSRTRALLDKYGFNFKKSLGQNFLIDVNIINNIIDASDIDAQTGVIEIGPGMGSLTEQLARHAKRVLAFEIDQRLIPVLNDTLSPYDNVTVINEDILKANIKEAVENHLQDCEKIMVVANLPYYITTPILLNLMQQDIPIDGYVVMMQKEVGERLNAEVGSKAYGSLSIVVQYYTETSKVLTVPKSVFMPPPNVDSIVVKLMQRTEPLVTVDNEEAFFKLAKAAFAQRRKTINNNYQNYFKDGKQHKEVILQWLEQAGIDPRRRGETLSIQDFAKLYEEKKKFPQLEN”, for which the protein production entry is “failed”.

As for “MLDPILLLGLVVAVLAMSLVAQALSSYFRIPFIIFLLIEGIIAGPEVLNLLNPALYVDGLSTIVAISVSVIVFDGGLHIDLKHIRMVQESVLKLTTIGVFVTFLGTTVLTSLLIEIPLELAALFGALVTATGPTVITPIVRNIQISHKLGKILELEGVLNDAASVILAAMVFEWVAAELSGTDAVVFILYRLGIGIALGSLSGFALRWFFTRGKAISNRTARLVSLTAVFSCFVFSEYLGNESGILAVAIFGIILGTSDFPYKDTIKEFKSDIVIVMLSLIFILLAAMIKFEYILRIGASGVALVLLLIFVIRPFAVFVSMWNSQIGTNEKLFISFVGPRGVVPTAVATYFAIKLDSMGIPGGQTLVGLVFLTVIITVFMSGSLSKKVAEVLEVIPMEILIIGGGKVGRILAERFDKRGENVVVVDISEDNCKKCMELGIRTVQGDAGDVNVLKKAGIENAKYVVATTNQDNTNLLFCQLAKASFGFRGDQLVARVNEIENLQAFWNLGIRSMSPAMTTAVVLDNMIGRPHLFSMCEVGGEGEMMEVKVTNPRVIGKAIKDIQFPEKSLLVMVQRGSDSIIAHGNLVLEYEDIVTVIGEGDAAKQTAAILHK”, the protein production entry is reported as “failed”.

Turning to “MLDTLVFGCVAFPLLAALAVYFVRGEAARRLIVPGAVAVTALSALGMAGSGPIMFAPKSFLGIGLDGLIAFLDFALLFYILYLGTKMRHLLIMGMTVLQIVGLIYLEFFLMDHGATVPGFYVDSLSLTMVLIISFVGGLICVYGLGYMKEHEEHLHLPQTKQPRFFFFVVLFLGAMNGLVLSNNLAWMYFFWEITTLCSFMLIGHDGTDEAKTNATRALWMNMVGGVAFVFALLFLQKGMGTLSVQDILARAVEPEMRTTAVLLPMAMLCLAGFTKSAQLPFQSWLCGAMVAPTPVSALLHSSTMVKAGVYLILRMAPGYAGTALSTGVALFGAFTFIVTSALAAGQSNGKKILAYSTIANLGLIVACAGINTAASVAAAMMLIIFHAISKGLLFLCVGAIEQKIGSRNIEDMRNLFERMPRTAVITVIGIVTMMLPPFGMLIAKWMAIESAAGAMSAMPLLVIMIALGSALTVLFWARWAGIMLGSSRPGFGPMQEEQDITIRLPLVSLVGGALVLSLLAPFVYTGLVEPAIAMYAKASAYGVSIGTIGNTMGAFAVYPLYLLLGAGFYYAWRAARNTPDSAASLPYMGGSQMTQDGVVGFNGPMNQFVPNAAGNYYLEKLFGEAQLTKPGNVVAIVLLILMIGGML”, the protein production entry is listed as “failed”.

For “MLEFTKRSLMNKYNINERVLELYERALNDVEKEFKYYDEIREYNQLKVLKAFQEERISESHFTNSSGYGYNDIGRDSLDRVYANIFNTESAFVRPHFVNGTHAIGAALFGNLRPNDTMMSICGMPYDTLHDIIGMDDSKKVGSLREYGVKYKMVDLKDGKVDINTVKEELKKDDSIKLIHIQRSTGYGWRKSLRIAEIAEIIKSIREVNENVIVFVDNCYGEFVEEKEPTDVGADIIAGSLIKNIGGGIATTGGYIAGKEEYVTQATFRVTVPGIGGECGSTFGVMRSLYEGLFMAPHVTIEAVKGAVFCARIMELAGFDVLPKYNDKRTDIIQAIKFNDEKKLIDFIKGIQTASPVDSFVQCEAWDMPGYEDKVIMAAGTFVQGASIELSADAPIREPYIGYLQGGLTFDHAKLGVLIALSKLIM”, the protein production entry is “not failed”.

In the case of “MLEHHFRSLKAIDRVRAQWLGPQIERYVQSLDELHTSNATVRQHIRALGHFNDFVIARGVTKLEALPDHVDAFVEYWHAGHAGWCKNNQDRAAVTAQSRVPVERMLCLALPDYTRPNNRPAMPFANTVPGFLPFLNDEKGLRQESQQRYLYTLRPFEAYLNRGGIALSGLEPAHISRFLEERAKTLHKAGMRDTAGALRIFLRYLHREGIVATDLVRSVPRGRIYRQASIPRAIGWQDVERLLTSIDRRSILGKRDYAILTLLASYGLRAREIAALCLDDFDWTHAQISIPMRKGGHSTRYPLSATVGDAVISYLQARRSDVPHRQVFLTARSPYIPMRHWTVSAMVGIRMRDIGIQVTRAGSHTLRHACVQHLVEADMPFKVIGDYVGHSHPSSTLVYGKVAVHKLRQIVLFQGEDVL”, the protein production entry is “failed”.

Turning to “MLELDGSGAEPLRDGDPRWIGPIPLIGRLGSGGMGRVYLGVHEGRYAAVKQLLPSVVAEDEDFLRRFGHELDNLARLPGEATAPLLAGDREARPPWFATAYVPGLTLTEALEVHGGPLPAGALWLLLREAAKGLAAVHALDMVHRDLKPSNVMLTLEGLTLIDFGVARAAEQSRLTRTGMVVGTPAYMSPEQASGRRASSGAVDVFALGSVLAYAASGRPPFGDESGHAVLYRIVHEEPDLGPLRELDPELADVVASCLDKDHEGRPTAAELLETAERHGPYEPPLWPEALTERLTERAAFVTKLPERADLPEPEPEPERDPGPGPGSAVLGRRDPGRSDHRRRHRVLFAVVPVVVAAGATLAVQLLPYTFAPGDRADASPSSSAPVSSAPAASPAGPGKASRTATPDQDRSASPSRSPGEQGDRRGDADGGGGAAGGSQGDADAGGAGSGSGSGSGSAGDGGAGAGSGAGSGDGSGSDSGSGSGADSGSGAGSGSGSGSGSGSGDGGASGSGVFTLKNAKNGRCLTTAHADAPYDGDCTGDAATWTFRSRPDGTVWIINGLLGRCIYTAAIGHPVFSFPCGRTTGQEWRVGSGGTLKNAATGGCVTVSAMSGTGVRNEACEQSAAQRWTRS”, the protein production result is on record as “failed”.

Turning to “MLERILEPEVMDTEAEAMDYDAMDFQAVNLAFAQRACQLGPSKATVLDAGTGTARIPILLAQLRPAWQITAIDFARSMLAIAKENVIAAGCETQICLEFVDAKQLPYANGSFDGVIANSLCHHLPRPLDFLREVKRVLKPHGFLLIRDLIRPESPEKLADFVTAIGSDYNDQQRKLFADSLHASLTIAEIQDYLQHLGWVGDDGPNLELHLYQSSDRHWTLEKKFQSSTIVQR”, the protein production entry is reported as “failed”.

As to “MLESFGEHRWLLWAVASAVLACTEMLSGEFTLLMLAAGAGAGAITAAIVPGMWLLQVIVAAVVAALLLTVLRPTLLRRVREAPGYRSALDKLVGSDGVATSDITDGHGQVKVDGEEWSARALEPGSTIAAGEKIEVYEIDGATLVVYPVFRSLSS”, the protein production entry is “failed”.

For “MLETLYAFFDLGQFSQSPINGSHNPGLVILSYCVALLASYTAILTLERVQIYQAKVARYSWLIVSAVISGVGVWSMHFIGMLAFELHLPMSHSVLLTLISVVPAIVGSFIAMKIQMSLSSVRATLIAGTVLGAGIGLMHYTGMAAMEMSAHLRYDPLWFVLSVFVAVSLGIIALLAYRHYKKSERTSWFRRRSAQIVVAAIIALAISGMHYTAMIAANFYPTRAPDAVFSGHGNWLAYVVGIGSCLTAIMAIIASQIDRRLQQQQKLAQMSAEQLYEVISAIDDGLLLFDEHNRVLLANQAFTRLTGDDLERIKGSKLNIEDYIERSDKLLENIKNSLARRVAWQGKVNVRKRSGTTFPVRLSISKVRYNQQKERHFVATVTDISAEVESSERIRYLAYNDALTGLANRRSLLDHLQDQLATYKEAGQNGALILCDIDKFKILNNTLGSDMGDLLLKRVAERLQSSTKANSFLARLSANEFAVVLTGLERGNSVNIKQQLLTRIYQLLDQLQQPYQLNSYTHLCSFSAGASLFDDSESNAETLMTQSGLALSHSKRKGTGEVSLFRQEFADAVSKRVKLEEQLRNAIKQNEFELYLQPQVNIESKPTGAEALIRWKQSDGRFVSPADFIPLAEETGLIVPLGYWITERACQILQQWQQSPEKAKMQLSINVSAKQFQQPEFVEQVQLLVEKYEIRPHRLKLELTESLLMDDISSVTNKIKQLKRLGIEFALDDFGTGYSSLSYLMQIPFDTLKIDVSFVRNMLDSMEKAQIVYTIIQLGESLKLNIVAEGVETEEQFNYLARLNCDTFQGYLFSKPVPESEFLADKTAP”, the protein production entry was “failed”.

For “MLEVVYIVGAFGSPLLTPPTLAVAGFLIAVLMGLEYGVLWVLTGESLNRELILVISNIVYSIAWSITALPFTPIYYTLQPYFSQPLLIYLYLALFIGSILLGVIPAIMYIRKYLQFNKIQKEFKQLELDYKSINQEYSEINTRLNKAKEEINNVMDKINKAKELHETALRDPDLIVTALDKKPEIPEVIRPNVNYVVAGLGGTGTALLEALIDYLVSKNVIKEDGTNPFLFVAFDTNQASIARLRKKYEYTPVGKLLYTFNNFEALTTANIISHNPWLAGLNVDVIQGSGMKRAIGYASYNTVKEAMMEDILRRLSDLIAKTRTNRIFLIVFTALGGGTGSGSFIHFTKDFISRLGRITGDSEPYVRVSGM”, the protein production result is given as “failed”.

On to “MLFDEKEILAITRWAKLYANQSPDRILLGSNDIPPEYRAAVATQIELWPRLRNKLPQWAGISSLYIPSRLSLEQSSGAVTSSYKSRFIREGTKVVDLTGGLGIDFIALMSKASQGIYIERNDETAVAARHNIPLLLNEGKDVNILTGDFKEYLPLIKTFHPDYIYVDPARRSGADKRVYAIADCEPDLIPLATELLPFCSSILAKLSPMIDLWDTLQSLLHVQELHVVAAHGEVKELLVRMSLNEATIPPEKVPIHAINLLLEDTVIPFIFTMEEERSISIPYTDSIDKYVYEPHTALLKAGAFKTVAYRLGLRKLHPNSHLYTSEAYESAFPGRTFVLEEIIPFSTSVLKQLRKVVPQASISCRNFPLSPIELRQRSKMADGGEKTLMGTTMADGKKVLLLLRKAE”, for which the protein production result is given as “not failed”.
